B1: 9° N D141A/E143A/R406T/L408E: 9° N DNA polymerase mutant (protein, UniProt Q56366 1-775, looked up, variant D141A E143A R406T L408E)
DNA polymerase: MILDTDYITENGKPVIRVFKKENGEFKIEYDRTFEPYFYALLKDDSAIEDVKKVTAKRHGTVVKVKRAEKVQKKFLGRPIEVWKLYFNHPQDVPAIRDRIRAHPAVVDIYEYDIPFAKRYLIDKGLIPMEGDEELTMLAFAIATLYHEGEEFGTGPILMISYADGSEARVITWKKIDLPYVDVVSTEKEMIKRFLRVVREKDPDVLITYNGDNFDFAYLKKRCEELGIKFTLGRDGSEPKIQRMGDRFAVEVKGRIHFDLYPVIRRTINLPTYTLEAVYEAVFGKPKEKVYAEEIAQAWESGEGLERVARYSMEDAKVTYELGREFFPMEAQLSRLIGQSLWDVSRSSTGNLVEWFLLRKAYKRNELAPNKPDERELARRRGGYAGGYVKEPERGLWDNIVYLDFTSEYPSIIITHNVSPDTLNREGCKEYDVAPEVGHKFCKDFPGFIPSLLGDLLEERQKIKRKMKATVDPLEKKLLDYRQRAIKILANSFYGYYGYAKARWYCKECAESVTAWGREYIEMVIRELEEKFGFKVLYADTDGLHATIPGADAETVKKKAKEFLKYINPKLPGLLELEYEGFYVRGFFVTKKKYAVIDEEGKITTRGLEIVRRDWSEIAKETQARVLEAILKHGDVEEAVRIVKEVTEKLSKYEVPPEKLVIHEQITRDLRDYKATGPHVAVAKRLAARGVKIRPGTVISYIVLKGSGRIGDRAIPADEFDPTKHRYDAEYYIENQVLPAVERILKAFGYRKEDLRYQKTKQVGLGAWLKVKGKK
B2: 9° N D141A/E143A/R406E/L408G: 9° N DNA polymerase mutant (protein, UniProt Q56366 1-775, looked up, variant D141A E143A R406E L408G)
DNA polymerase: MILDTDYITENGKPVIRVFKKENGEFKIEYDRTFEPYFYALLKDDSAIEDVKKVTAKRHGTVVKVKRAEKVQKKFLGRPIEVWKLYFNHPQDVPAIRDRIRAHPAVVDIYEYDIPFAKRYLIDKGLIPMEGDEELTMLAFAIATLYHEGEEFGTGPILMISYADGSEARVITWKKIDLPYVDVVSTEKEMIKRFLRVVREKDPDVLITYNGDNFDFAYLKKRCEELGIKFTLGRDGSEPKIQRMGDRFAVEVKGRIHFDLYPVIRRTINLPTYTLEAVYEAVFGKPKEKVYAEEIAQAWESGEGLERVARYSMEDAKVTYELGREFFPMEAQLSRLIGQSLWDVSRSSTGNLVEWFLLRKAYKRNELAPNKPDERELARRRGGYAGGYVKEPERGLWDNIVYLDFESGYPSIIITHNVSPDTLNREGCKEYDVAPEVGHKFCKDFPGFIPSLLGDLLEERQKIKRKMKATVDPLEKKLLDYRQRAIKILANSFYGYYGYAKARWYCKECAESVTAWGREYIEMVIRELEEKFGFKVLYADTDGLHATIPGADAETVKKKAKEFLKYINPKLPGLLELEYEGFYVRGFFVTKKKYAVIDEEGKITTRGLEIVRRDWSEIAKETQARVLEAILKHGDVEEAVRIVKEVTEKLSKYEVPPEKLVIHEQITRDLRDYKATGPHVAVAKRLAARGVKIRPGTVISYIVLKGSGRIGDRAIPADEFDPTKHRYDAEYYIENQVLPAVERILKAFGYRKEDLRYQKTKQVGLGAWLKVKGKK

System: modified nucleotide
Test: Screen of DNA polymerase mutants for modified nucleotide incorporation
Format: biochemical
Excerpt: In order to determine the extent of 3′-modified nucleotide incorporation by archaeon DNA polymerases, the titration assay described by Gardner and Jack (2002) was used. In this assay, the efficiency of incorporation of chain terminators was judged by the size of the reaction products in a polymerization reaction. As the efficiency of chain-terminator incorporation increased, the average reaction product size decreased because polymerization was more often halted by terminator addition. By comparing the amount of terminator required to give the same spectrum of reaction products, the relative efficiency of incorporation of the test compounds with the different polymerases was determined.
A complex library of 9° N DNA polymerase mutants was screened for enhanced incorporation of 3′-azido-ddCTP. Several classes of 9° N DNA polymerase mutants were identified with enhanced terminator incorporation. 9° N exo-L408S/Y409A/P410V (Therminator III™, NEB, Inc., Ipswich, Mass.) was purified and characterized in more detail. 9° N DNA polymerase single mutants P410V, L408S, and Y409A and double mutants L408S/P410V, L408S/Y409A, and Y409A/P410V were also purified for comparison. Purification and characterization of DNA polymerase mutants was as described in Gardner and Jack, Nucleic Acids Res. 27:2545-2553 (1999).
A library of 9° N DNA polymerase mutants was constructed by PCR amplification of the polymerase genes using gene-specific primers or codon optimization and gene synthesis Czar et al. Trends Biotechnol 27(2): 63-72 (2009)). The ability to incorporate 3′-modified nucleotide terminators was evaluated by the titration assay for chain terminator incorporation efficiency as described by Gardner and Jack (2002).
Furthermore, the same assay was used to measure 3′-amino-ddCTP incorporation by 9° N exo-L408S/Y409A/P410V (FIG. 3) and to measure rates of incorporation (FIG. 4). Examples of mutants that increased modified nucleotide incorporation by at least two-fold were: […]

| Molecule | increase of modified nucleotide incorporation |
| --- | --- |
| B1 | at least two-fold |
| B2 | at least two-fold |
